{"source": "paper PMC2804263", "about": "(Biochemistry, 2009)", "proteins": {"B1": {"name": "Bovine S100B (Ca^2+-S100B in the SBiX crystal structures) (natural protein)", "chain": "MSELEKAVVALIDVFHQYSGREGDKHKLKKSELKELINNELSHFLEEIKEQEVVDKVMETLDSDGDGECDFQEFMAFVAMITTACHEFFEHE"}}, "molecular_target": "the molecule itself", "experiment": "crystal structure"}
{"protein": "B1", "values": [{"measurement": "binding result", "value": "binds"}]}
